These results are taken from US20180127478A1.

In this test the target is GH receptor (on Nb2 cells). In words: cell-based or functional assay.

In the case of “commercial recombinant hGH (Somatropin, United States Pharmacopeia) (from UniProt P01241 27-217) (ligand)”, the Nb2 cell proliferation, EC50 is 166 pM.
